Experimental findings from IntAct's records for PubMed 22615398 are described below.

For assay [1], the target named is gemi_human GMNN (UniProt O75496).
For assay [2] the target is unchanged. The source holds these as a separate data set.

gemi_human GMNN, sequence (O75496 whole entry): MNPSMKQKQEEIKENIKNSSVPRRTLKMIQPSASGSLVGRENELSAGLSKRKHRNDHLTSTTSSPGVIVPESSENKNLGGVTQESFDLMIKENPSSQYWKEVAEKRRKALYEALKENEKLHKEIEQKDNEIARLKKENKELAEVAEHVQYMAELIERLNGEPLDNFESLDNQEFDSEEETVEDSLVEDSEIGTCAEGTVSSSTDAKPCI
Homeobox protein Hox-C9 (Homo sapiens), P31274 R234A;M245A, sequence (P31274 whole entry R234A/M245A): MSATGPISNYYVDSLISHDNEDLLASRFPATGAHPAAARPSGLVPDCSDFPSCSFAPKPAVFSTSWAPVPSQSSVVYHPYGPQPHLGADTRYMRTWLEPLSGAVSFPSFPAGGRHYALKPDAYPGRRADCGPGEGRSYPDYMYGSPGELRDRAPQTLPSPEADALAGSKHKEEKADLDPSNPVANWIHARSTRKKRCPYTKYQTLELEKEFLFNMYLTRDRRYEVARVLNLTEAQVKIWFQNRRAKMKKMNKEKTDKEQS
Paired box protein Pax-6 (Homo sapiens), P26367 A252R;A263M, sequence (P26367 whole entry A252R/A263M): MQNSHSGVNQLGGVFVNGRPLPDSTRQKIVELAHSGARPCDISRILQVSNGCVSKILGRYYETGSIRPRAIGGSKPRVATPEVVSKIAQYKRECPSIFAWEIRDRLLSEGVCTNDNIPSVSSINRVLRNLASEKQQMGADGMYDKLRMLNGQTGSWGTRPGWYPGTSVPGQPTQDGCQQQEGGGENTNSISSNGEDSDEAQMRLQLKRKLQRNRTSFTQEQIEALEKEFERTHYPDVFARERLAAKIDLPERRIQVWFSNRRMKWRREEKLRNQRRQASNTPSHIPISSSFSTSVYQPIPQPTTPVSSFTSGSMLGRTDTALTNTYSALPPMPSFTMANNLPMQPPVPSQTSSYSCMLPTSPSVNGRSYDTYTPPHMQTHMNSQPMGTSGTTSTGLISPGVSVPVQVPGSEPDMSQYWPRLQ
Homeobox protein Hox-C9 (Homo sapiens), P31274 R193A;K194A;K195A;R196A, sequence (P31274 whole entry R193A/K194A/K195A/R196A): as the sequence (P31274 whole entry R234A/M245A) above, with R193A, K194A, K195A, R196A, A234R, A245M counted along it

On to “Homeobox protein Hox-C9 (Homo sapiens), P31274 R193A;K194A;K195A;R196A”, for which, in the assay with gemi_human GMNN [1], the “effect of a mutation on the interaction” value was “decreasing interaction strength”. Turning to “Homeobox protein Hox-C9 (Homo sapiens), P31274 R234A;M245A”, in the assay with gemi_human GMNN [1], the “effect of a mutation on the interaction” value was “decreasing interaction strength”. Turning to “Paired box protein Pax-6 (Homo sapiens), P26367 A252R;A263M”, in the assay with gemi_human GMNN [2], the “effect of a mutation on the interaction” value was “increasing interaction strength”.
